# The nanobody polyreactivity screen of Harvey et al. (2022)
# Assay: yeast display, Sf9 membrane polyspecificity reagent, FACS + sequencing; frameworks hold sequencing errors
# How it was run: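 A synthetic nanobody library was expressed on Saccharomyces cerevisiae BJ5465 by galactose induction for 36–48 hours. The library was stained for 1 hour at 4 °C with 10% biotinylated, detergent-solubilized Sf9 membrane reagent and enriched with streptavidin microbeads before FACS. Low and high (top ~1%) gates were set on anti-HA fluorescence for expression and streptavidin fluorescence for reagent binding, and each polyreactivity label reflects the gate of origin.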
row,Sequence,polyreactivity (PSR sort gate)
1,QVQLVESGGGLVQAGGSLRLSCAASGRIFGWNAMGWYRQAPGKERELVASIRSGGRTNYADSVKGRFTISRDNAKNTVYLQMNSLKPEDTAVYYCAVGPYYQSTQIYDYWGQGTQVTVSS,low polyreactivity
2,QVQLVESGGGLVQAGGSLRLSCAASGFTFSSNAMGWYRQAPGKEREFVAAISFNSTSTYYADSVKGRFKISRDNAKNTVYLQMNSLKPEDTAVYYCAADVPRVQSEPEYDYWGQGTQVTVSS,low polyreactivity
3,QVQLVESGGGLVQAGGSLRLSCAASGITFVDYAMGWYRQAPGKEREFVAAISWSGGSTYYADSVKGRFTISRDNAKNTVYLQMNSLKPEDTAVYYCAARPKFGTAHRYYYWGQGTQVTVSS,high polyreactivity
4,QVQLVESGGGLVQAGGSLRLSCAASGSTFDTNVMGWYRQAPGKERDLVAAIDVSGGSTYYADSVKGRFTISRDNAKNTVYLQMNSLKPVDTAVYYCAAVDGKYGMDYWGQGTQVTVST,low polyreactivity
5,QVQLVESGGGLVQAGGSLRLSCAASGRIFYRYAMGWYRQAPGKERELVAAIRYSGGRTYYADSVKGRFTISRDNAKNTVYLQMNSLKPEDTAVYYCAARGWYKSDYWGQGTQVTVSS,low polyreactivity
6,QVQLVESCGGLVQAGGSLRLSCDASGSIFIKKTMGWYRQAPGKEREMVAAISWSGGSTYYADSVKGRFTISRDNAKNTVYLQMNSLKPEDTAVYYCNAYYFWRTWFDTYDYWGQGTQVTVSS,high polyreactivity
7,QVQLQESGGGLLQECGSQRLSCAASGSISEGQDMGWYRRAPGKEREFVAGIAPGATTYYADSVKGRFTISRDNAKNTVYLQMNSLNPEDTAVYYCAARYVTESDHDYWGQVTQVTVSS,low polyreactivity
8,QLQLVESVGGLVQAGGSLRLSCASSGRTFDYNAMGWYRQAPGKERELVARISNGDSTYADSVKGRFTISRDNAKNTVYLQMNSLKPVDTAVYYCAKSTRRGGVALGEYDYWGQGTQVTVSS,low polyreactivity
9,QVQLVDSGGGLVQAGGSLRLSCAASGRTFLFNSMGWYRQATGKQRELVAGITWSSGSTYYADSVKGRITISRDNAKNTVYLQMNSLKPEDTAVYYCAAYHFHDNDYWGQGTQVTVSS,low polyreactivity
10,QVQLVETGGGLVQAGGSLRLSCAASGRTLWSYVMGWYIQAPGKERELVAAITSGGTTYYADSVKGRFTISRDNAKNTFYFQMNSLKPEDTAVYSCNVYTKFVYAYDYWGQGTQVTVSS,high polyreactivity
11,QVQLVESGGGLVQAGGSLRLICAASGYIFKHNAMGWYRQAPGKERELVAAISWSGVSTYYADSVTGRFTISRDNAKNTVYLQMNSLKPEDTAVYYCNAPAIAPIYDYWGQGTQVTVSS,low polyreactivity
12,QVQLVESGGGLVQAGGSLRLSCAASGSIFYPYAMGWYRQAPGKERELVARISSAGGTYYADSVKGRFTISRDNAKNTVYLQMNSLKPEDTAVYYCAAQARYRYYYWGQGTQVTVSS,high polyreactivity
13,QVQLVESGGGLVQAGGSLRLSCAASGSIFDWYVMGWYRQPPGKERELVATITRDGSTNYADSVKGRFTISRDNAKNTVYLQMNSLKPEDTAVYYCNAASRAYGYNYWGQGTQVTVSS,low polyreactivity
14,QVQLVESGGGLVQAGGRLRLSCAATGFTFTYYPMGWYRQATGKETEFVAAITWNSGTTYYADSVKGRFTISRDNAKNTVYLQMISLKPEDTAVYYCNALWHRQRWSRGDYWRQGTQVTVSS,high polyreactivity
15,QVQLVESGGGLVQAGGSLRLSCAASGSIFRKYTMGWYKQAPGKERELVAAISGTAGRTYYADSVKGRFTISRDNAKNTVYLKMNSLKPEDTAVYYCAALRFGGYGYNYWGQGTQVTVSS,high polyreactivity
16,QVQLVESGGGLVQAGGSLRLSCAASGRIFGYYAMGWYRQAPGKERELVATIRGGGSTNYADSVKGRCTISRDNAKNTVFLQMNSLKPEDTAVYYCAKPCAKWRGFDYWGQGTQVTVSS,low polyreactivity
17,QVQLVESGGGLVQAGGSLRLSCAASGRTFRGNDMGWYRQAPGKERELVATITRNGGSTRYADSVKGRFTISRDNAKNTVYLQMNSLKPEDTAVYYCNARSRYFGYDYWGQGTQVTVSS,high polyreactivity
18,QVQLVESGGGLVQEGGSLRLSWAASGITFGGYAMGWYRQAPGKERELVAAISRGGGSTNYADSVKGRFTISLDNANNTVYLQMNSLKPEDTAVYYCNARRQNSRYDYWGQGTQVTVST,low polyreactivity
19,QVQLVESGGGLVQAGGRLRLSCAASGRIFAANVMGSYRQAPGKERELVAAISWNGGSTYYADSEKGRFTISRDNAKKSVYLQLNSLKPEDTAVYYCAVRGSYRVWYDYWGQGTQVTVSS,high polyreactivity
20,QVQHVESVGGLVQAGGSLPLSGASSGFIFRKNAMGWYRQATGKEREFVAAISRRGGCTYYADSVKGRFTISRDNAKNTVYLQMNSLKPEDTAVYYCNAELYDVGSHEYDYWVQGTQVTVSS,high polyreactivity
21,QVQLVESGGGLVQAGGSLRLSCAASGRIFRGNAMVWSRQAPGKERELVASISWRGASTDYADSVKGRFTISRDNAKNTVYLQMNRMKPEDTAVYYCAARVVWRISVYYVIDYNYWGQGTQVTVSS,high polyreactivity

row,Sequence,polyreactivity (PSR sort gate)
1,QVQLVESGGGLVQAGGSLRISCAASGFTFWYYVMGWYRQAPGKERELVAAISSGGSTYYADSVKGRFTISRDNAKNTVYLQINSLKPEDTAVYYCAASYRSATRQFDYWGQGTQVTVSS,low polyreactivity
2,QVQLVESGGGLVQAGGSLRLSCAAYGFIIARNAMGWYRQAPGKERELVAAISAAGGRTYYADSVKGRFTISRDNAKITVYFQMNSLKPEDTAVYYCAARRDGRCGSYNYWGQGTQVTVSS,high polyreactivity
3,QVQLVESGGGLVQAGGSLRLSCAASGSTFSHYAMGWYRQAPGKERELVAAISTSGGSTYYADSVKGRFTISRDNAKNTVYLQMNSLKPEDTAVYYCAAAVPRQGNYGGYEYWGQGSQVTVSS,high polyreactivity
4,QVQLVESGGGLVQAGGSLRLSCAASGFIFAYYTMGWYRQAPGKEREFVASITYSGGNTYYADSVKGRFTISRDNAKNTVYLQMNSLKPEDTAVYYCATRDGYSISTTGLMDYWGQGTQVTVSS,low polyreactivity
5,QVQLVESGGGLVQAGGRLRLSCAASGFIFKGYAKGWYRQAPGKERELVAAISYSGGNTYYADSVKGRFTISRDNAKNTVYLQMNSLKPEDTAVYYCDVRKRKVLGMYYWGQGTQVTVSS,high polyreactivity
6,QVELVESGAGLVQAGGSLRLSCAASGRIFRYYVKGWYRQAPGKESELVAAISSGGSTNYADSVKGRFTISRDNAKNTVYLQMNSLKPEDTAVYYCNRDIGGSSVLDDYWGQGTQVTVSS,low polyreactivity
7,QVQLVESGGGLVQAGGSLRLSCAPSGRIFYPYAMGWYRQAPGKERELVAAISSRGDSTYYADSVKGRFTISRDNAKNTVYLQMNSLKPEDSAVYYCAAVYGSFPTRLYYWGQGTQVTVSS,high polyreactivity
8,QVQLVESGGGLVQAGGSLRLSCADSGFILGANDMGWYRQAPGKERELVAAIRSSDGTTYYADSVKGRFTISRDNAKNTVYLQMNSLKPEDTAVYYCAADWRLLYDYWGQGTQVTVSS,high polyreactivity
9,QVQLVESGGGLVQAGGSLRLSCSASGSIFASNTMGWYRQAPGKERELVAGITKIGSSTYYADSVKGRFTISRDNAKNTFYLQMKSLKPEDTAVSYCKAYGPNIYSSRYDYWVQGTQVTVSS,low polyreactivity
10,QDQLVESGVGLVQPGGSLRLSCAASGITFRKYAMGWYRQAPGKERELVAAIRWSGTRTYYADSVKGRFTISRDNAKNTDYLQMNRLKPEDTAVYYCATVYGATPGRSGLDYWGQGTQVTVSS,high polyreactivity
11,QVQLVESGGGLVQAGGSLRLSCAASGRTFPYYVMGWYRQAPGKERELVAAIRRTGGSTYYADSLKGRFTISRDNAKNTVYLQMNSLKPEDTAVYYCTKRHSILYEGGYDYWGQGTQVTVSS,low polyreactivity
12,QVQLVESGGGLVQAGGSLRLSCAASGFTFTRYAMGWYRQAPGKERELVAAISRIGGSTYYADSVKGRFTISRDNAKNTVYLQMNSLKPEDTAVYYCAASKVPSYDYWGQGTQVTVSS,high polyreactivity
13,QVQLVESGGGLVQAGGRLRLSCAASGTRYYAMGWYRQAPGNERELVAGIRWRDGGTYYADSVKGRFTISRDNAKNTVYLQMNSLKPEDTAVYYCNAAQSVELGYDYWGQGTQVTVSS,high polyreactivity
14,QVQLVESGGRLVQAGGSLRLSCAASGNIFTVNAMGWYRQAPGKERELVAAISVGDGTTYYADSVKGRFTISRDNAKNTVYLQMNSLKPEDTAVYYCAAEGYTDYEYWGQGTQVTVSS,high polyreactivity
15,QVQLVESGGGLVQAGGSLRLSCAASGSTFYRNAMGAYRQAPGKDREFVAAISFRGGGTYADSVKGRCTISRDNANNTVYLQMNSLKPEDTAVYYCAADHLSYRRRYEYWGQGTQVTVSS,low polyreactivity
16,QVQLVESGGGLVQAGGSLRLSCAASGRTFYYYAMGWYRQAPGKERELVAAINSGGTTSYADSVKGRFTISRDNAKNTVYFQMNSLKPEDTAVYYCAASDYGFPEYLTAYFYWGQGTLVTVSS,low polyreactivity
17,QVQLVESGGGLVQAGGSLRLSCAASGLIFRAYAMGWYRQAPGKERELVAAISRNGGSTYYADSVKGRFTISRDNAKTTVYLQMNSLKPEDTAVYYCNKVSRSSVYLDYYYWGQGTQVTVSS,high polyreactivity
18,QGQLVESVGGLVQAGGSLRLSCAASGSIFGWYVMGWYRQAPGQERELVAAISSVGSTYYADSVKGRFTISLDNAKNTVYLQMNSLKAEDTAVYYCAKLRYPYLFWDDSEYWGQGTQVTVSS,low polyreactivity
19,QVQLVESGGGLVQAGGSLRLSCAASGFIIGLYAMGWYRQAPGKERELVAAISGSGGSTYYADSVKGRFTISRDNAKNTVYLQMNSLKPEDTAVYYCNGAHGVHTYVYRYCYWGQGTQVTVSS,low polyreactivity
20,QFQLVESGGGLVQPGGRLRLICAASGHNFPLNAMGWYRQAPGKERELVAAISRTGGSTYYADSVKGRFTISRDNAKFSVYLQMNSLKPEDTALYFCAKRGQACEDYWGEGTQVTVSS,high polyreactivity
